Results from the supplement of paper PMC12042874.
± gives the uncertainty stated by the source.

Test: amyloid nucleation score (Sup35N fusion, yeast selection) (log enrichment); library NNK3; higher = more nucleation; inactive = no reads after selection
How it was run: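 After 24 hours of induction with 100 μM copper sulfate, psi-negative yeast expressing peptides of 20 random codons fused to Sup35N were grown for 7 days at 30°C on medium lacking adenine and uracil. Input and output plasmid inserts were sequenced with Illumina, and sequences with under 100 input reads were discarded. Scores for nucleation are the DiMSum log enrichment of output over input reads, centred on the mode score of non-aggregating sequences.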

Substance | amyloid nucleation score
GFLMGSE | inactive
RTMSSLLFQFDSFLKLIKSE | inactive
KVARIVPRFKRQDYTALILD | inactive
LIEDVYLWLCYHRVGYLSAS | inactive
KDYGLADGERHESM | inactive
VARGNMCNL | inactive
KTWVSIVSGLKADSGGGLHA | inactive
FSTWEELLTSHLKCFTAGWG | -0.458 ± 1.4
LLNPCKRSCVNLRMHTQPSS | inactive
SPLYGYGDKRQVRYLLTGSC | inactive
RLTGCRWDSPVTKVNIRWVY | inactive
MSMLKFIYFDYSMDSLHIIW | inactive
SCLWGKRLMFWCE | -0.528 ± 0.77
TYMGSTYLSNSYVLVSNNIK | 1.72 ± 0.12
VVGLWTNS | inactive
ESSMFARDTLWMSFVRTMHS | inactive
ECLKPCSSNCTNRPTARPQC | inactive
TVGTIPFWVALPSTSLNR | inactive
LDTSD | inactive
FKRWLSSWFKLA | inactive
LVGFRTGTALLDQMAL | inactive
HLACLRV | inactive
FKLWWIKCCMHPLMMHVAWM | -0.036 ± 0.27
WILLGNGSMNMKSCFMLLFV | inactive

Substance | amyloid nucleation score
WCFWNSC | inactive
IITPELYGKLRLHH | inactive
VRKVSTAPAELHAIKSGDTH | inactive
EFQGQTKSSWAYRLDKLCLP | inactive
FDFARWKDMKRESFLFLDVR | inactive
DCKLVDIDSLLVTFDR | inactive
RVCRVAPLPAVKGLGVSQNS | inactive
YRYMVRITCGCFHAVNDT | 1.19 ± 0.14
RVKQQLNLP | inactive
SASKKLTAFALVVFLRV | inactive
YYVRRIMT | inactive
TNNINALMLAIPINEYVVGH | inactive
SRTAKSFDATWMITFYGWGP | inactive
ISMFDPLRCPWSNYGMCG | inactive
WIIEGSRLRC | inactive
ISKSVLMMNTAKIPPPMF | inactive
RHMFVSSSKRWKFSSNTYRT | inactive
VFRMCVYIDLVSLDSYYDVL | inactive
LVSCK | inactive
TTEPDRATLSYR | inactive
LWVAVYMFGTCWMRDEVDDV | inactive
WCNVRYLVDMRFFTTVGVKL | inactive
ETWLKTINRLGLNRSHLSIL | inactive
SFMVIIYAVERVIVGITGKS | 0.611 ± 0.16

Substance | amyloid nucleation score
RYKVD | inactive
WGLMIWSWPYMFCTLLPASR | inactive
RGAPVFCFYKWFSTATCSIA | inactive
LCRSGIFKSYWNITMFFKFL | inactive
DAFYIFWLDTSWFRWYAGTS | -0.131 ± 0.61
LFNYVEEIRAVRRIRLGYIK | inactive
IFDLWLRLYSLANYNGSFVT | inactive
PTITNS | inactive
CSNAGTCPCLCYRAILDQWV | -0.401 ± 0.84
HVLGRKLFHGVAVVLFSCEL | inactive
HYSLNASIYSTCTRTSMNPV | -0.136 ± 0.53
HSYHPMPWTVNLGCHFGGYC | 2.38 ± 0.068
LIILWRQ | 1.27 ± 0.079
DMLFDQGLSCNGLI | inactive
MQSAAM | inactive
LAYVHMGGIARWLC | inactive
SFFLIRG | inactive
RSDMTAHDTNDAVQLEPSVE | inactive
CSGYSTNFGK | inactive
SMATNCTDR | inactive
HPLAAGHGVYFSSCIFK | 1.7 ± 0.097
ALCMIYFW | 2.79 ± 0.076
LYLVMSYV | inactive
YFFVSWFRCMGPILSFTRVV | inactive

Substance | amyloid nucleation score
GILFNK | inactive
QTVTRLTNSNSKLYFQPDVA | inactive
VWTGHCMASFVRFTCSVVDD | inactive
QLMYRE | inactive
SRQARCKPCVSCWDRCMWMI | inactive
YPHLMK | 1.54 ± 0.12
FPGSS | inactive
YINLFGKWA | 1.53 ± 0.1
AVSTTTSMVINRLRACKYAY | inactive
INIWSMYYMILLLFFIIYRL | 0.55 ± 0.24
DRAGHGSV | inactive
YRPFWSA | inactive
YMESVARNSLRVSDCNAK | 0.7 ± 0.14
IIYKTVHVYVYCSIVLERDL | inactive
YAAIPQIVINVLVGGTNASC | 2.1 ± 0.069
FLIYAQALLF | inactive
PLPPPRKAMASLFVFLAWMA | inactive
KFLPGCCFYMRIMSQVSLKN | inactive
FSPMYFNWMIGVVCSGIVGN | -0.349 ± 0.8
FLWGICWYRMVMKAHFDFIC | inactive
WDSWESYFASHHSF | inactive
NTRSPAESMHHPLMAMAVKN | inactive
DGLYSTNQRSIAPHLTQPID | inactive
SVLFLTRIEEVGVRYMFKDC | inactive

Substance | amyloid nucleation score
HVYNLLRVVF | inactive
IDSCLQNSP | inactive
LNGMFG | inactive
FNVSHLVRYSVCYFCGMIEL | 1.89 ± 0.063
FVLIPSHRAW | inactive
YGYVLTSTVGVILVYWSYSC | inactive
DGAYYGLCMMFNVSVLMGII | 0.063 ± 0.51
SIEKAILCSCVVSMPIMRGG | 2.3 ± 0.081
KNLGIG | inactive
LYKGYYVLMLEWARDKIHSA | inactive
DIFSRSVS | inactive
SLPCSKCAVKLFL | inactive
RRLTGFMQVVRKNWVLGELA | 1.04 ± 0.21
AYYNMK | -0.111 ± 0.21
RTHGCCSVCNTEFADGVVLS | inactive
TFYDNLSDRLFSWS | inactive
YICTNNLTYNSMMQIFSKIM | 0.394 ± 0.33
SMRQSFQWCYHSAECYVHSG | 0.337 ± 0.31
SGISIVIPFPRGVQMT | -0.47 ± 1
DYCLSLLWINMPHVGNIVNL | inactive
VLCQSHACRSHAGLCSSNKI | inactive
SLMLLRRTAVRPHWWKLRPN | inactive
ECVFIKFWVEGWKTLWSWSA | inactive
FRGCYRFELLSDTCISRELV | inactive

Substance | amyloid nucleation score
IKYFAIVSVCGFVA | 1.23 ± 0.13
LVHDLDLCSPGVSYQKSRMS | inactive
PSVIRNAYYAY | inactive
NIFDFVFDEFRLAQPMYKCC | inactive
DFTCDPSTLNSRRLSEDLIR | inactive
DIFTPILMLCWV | inactive
RFSRRYMHGFS | inactive
IICLSGGDFRRYELDHSN | inactive
WIHRMLSSGVDSPRNTSLWT | inactive
SYHYHATILSWTYYVTVYFL | inactive
YRTDDERCDMTTVLYSYMEY | inactive
FSSRVRTMPLVGVM | inactive
GHTANLTYALFMGDFSRAGI | inactive
KIFTWIRCNLSIFYSYGFKS | inactive
FGIWRLCRFFA | inactive
KSPVWIQIPLMCFLLEFVLG | 0.471 ± 0.2
YLGCSINLGTEDIIYAESEH | inactive
NNVVVL | inactive
PDINM | inactive
TGSVFVKDGTLWPTCVDLIG | inactive
FMVLRYCVILWGFWEYMSSA | inactive
QMDRRTPLM | inactive
QDFYSACSNIVNST | inactive
WLLENVPGITLAFV | inactive

Substance | amyloid nucleation score
VIALVSGEYSWFRILCTPFY | inactive
GYSNFDCLSSLNISEYGPAA | inactive
FRHCGCHTFLCIIVTDRHHY | 1.85 ± 0.061
SCMCYGTLLVLLYISYVMVE | inactive
SIFMWLRNRC | inactive
VIWAVPAH | inactive
RFNMCGEYGKVHGLGW | inactive
IGMVHCIAEDARRLLLYIWV | inactive
LIYVFIIFVMIFWVCCTMRS | 0.166 ± 0.42
LCRKPFDVGLGRV | inactive
CSVLC | inactive
YVFSTWSSP | inactive
INRDYSVIVSGSYHHSSLTE | inactive
RAWVLHCGNGYWYPLGQ | inactive
KRYNRFIGHLMTLYRASMGD | -0.714 ± 0.88
NILFWSF | inactive
IFHLKIAYFPNYGRITLYYL | 1.65 ± 0.091
MTRKYQNR | inactive
